Experimental data reported in US20130337438A1 (JAPAN HEALTH SCIENCES FOUNDATION, published 2013).

Assays:
HPV31 L1/L2-capsid = biological target: T1, HPV31 L1/L2-capsid (human papillomavirus type 31, UniProt P17389 1-466; P17388 1-504); test: ELISA on immobilized L1/L2-capsid, purified antibody 250 ng/well
T1 construct: Capsid of co-expressed L1 and L2 from 293FT cells; The pseudovirus is the same capsid with a reporter plasmid; also called L1/L2-capsid of type 31; HPV31 pseudovirus
T1 sequence 1: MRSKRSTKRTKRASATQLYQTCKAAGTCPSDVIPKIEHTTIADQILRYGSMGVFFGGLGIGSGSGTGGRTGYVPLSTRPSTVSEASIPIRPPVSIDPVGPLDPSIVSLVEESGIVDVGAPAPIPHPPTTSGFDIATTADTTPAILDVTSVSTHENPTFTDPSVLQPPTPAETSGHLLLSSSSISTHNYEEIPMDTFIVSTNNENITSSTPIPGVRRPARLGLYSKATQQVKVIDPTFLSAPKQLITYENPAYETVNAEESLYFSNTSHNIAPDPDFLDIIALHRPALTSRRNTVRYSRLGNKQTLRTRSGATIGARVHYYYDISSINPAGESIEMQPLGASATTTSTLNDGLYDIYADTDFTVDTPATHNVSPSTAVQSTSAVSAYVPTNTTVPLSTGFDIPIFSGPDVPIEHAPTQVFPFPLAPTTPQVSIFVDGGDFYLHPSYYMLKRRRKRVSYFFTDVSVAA
T1 sequence 2: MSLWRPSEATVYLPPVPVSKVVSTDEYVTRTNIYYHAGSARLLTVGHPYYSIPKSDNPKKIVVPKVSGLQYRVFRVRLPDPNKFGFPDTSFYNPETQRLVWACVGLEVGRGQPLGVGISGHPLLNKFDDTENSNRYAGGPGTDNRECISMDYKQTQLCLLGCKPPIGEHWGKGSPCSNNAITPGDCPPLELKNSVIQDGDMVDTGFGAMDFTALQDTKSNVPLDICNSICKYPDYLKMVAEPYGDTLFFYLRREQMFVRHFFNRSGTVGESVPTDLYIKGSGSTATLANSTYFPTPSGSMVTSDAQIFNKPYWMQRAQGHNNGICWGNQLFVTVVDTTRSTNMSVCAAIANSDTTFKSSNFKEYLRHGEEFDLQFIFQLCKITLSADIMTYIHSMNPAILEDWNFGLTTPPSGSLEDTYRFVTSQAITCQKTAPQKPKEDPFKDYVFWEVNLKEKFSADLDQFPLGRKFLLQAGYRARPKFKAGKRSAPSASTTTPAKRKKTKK

[1] = biological target: T2, P56/75 (amino acids 56-75 of HPV16 L2 protein) (human papillomavirus type 16, conjugated with keyhole limpet hemocyanin (KLH) via cysteine); test: affinity purification on KLH-P56/75 sepharose
T2 construct: Synthetic peptide; It was conjugated with KLH via an added cysteine (KLH-P56/75); also called KLH-P56/75; L2 peptide (56-75)
T2 peptide: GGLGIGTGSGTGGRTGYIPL

HPV16 L1/L2-capsid = biological target: T3, HPV16 L1/L2-capsid (human papillomavirus type 16, UniProt P03107 1-473; P03101 1-505); test: hybridoma screening ELISA on HPV16 L1/L2-capsid
T3 construct: Capsid of co-expressed L1 and L2; It was made in 293FT cells (Test Method 2) or in Sf9 insect cells with baculovirus (Test Method 3); The pseudovirus of Test Method 1 is the same capsid carrying a SEAP plasmid; also called L1/L2-capsid of type 16; HPV16 pseudovirus (PsV)
T3 sequence 1: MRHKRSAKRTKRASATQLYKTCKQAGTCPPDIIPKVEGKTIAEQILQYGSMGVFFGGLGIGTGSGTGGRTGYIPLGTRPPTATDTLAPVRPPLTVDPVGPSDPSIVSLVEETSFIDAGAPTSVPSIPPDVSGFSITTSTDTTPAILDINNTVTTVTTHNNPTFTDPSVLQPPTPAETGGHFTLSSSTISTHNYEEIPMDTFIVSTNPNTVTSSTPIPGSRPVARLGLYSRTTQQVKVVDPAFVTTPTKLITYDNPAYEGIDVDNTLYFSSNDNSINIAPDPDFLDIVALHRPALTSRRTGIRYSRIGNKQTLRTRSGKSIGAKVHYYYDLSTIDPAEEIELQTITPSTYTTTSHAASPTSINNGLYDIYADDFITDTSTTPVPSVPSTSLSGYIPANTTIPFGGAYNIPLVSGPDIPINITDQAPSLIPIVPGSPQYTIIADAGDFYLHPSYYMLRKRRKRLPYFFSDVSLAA
T3 sequence 2: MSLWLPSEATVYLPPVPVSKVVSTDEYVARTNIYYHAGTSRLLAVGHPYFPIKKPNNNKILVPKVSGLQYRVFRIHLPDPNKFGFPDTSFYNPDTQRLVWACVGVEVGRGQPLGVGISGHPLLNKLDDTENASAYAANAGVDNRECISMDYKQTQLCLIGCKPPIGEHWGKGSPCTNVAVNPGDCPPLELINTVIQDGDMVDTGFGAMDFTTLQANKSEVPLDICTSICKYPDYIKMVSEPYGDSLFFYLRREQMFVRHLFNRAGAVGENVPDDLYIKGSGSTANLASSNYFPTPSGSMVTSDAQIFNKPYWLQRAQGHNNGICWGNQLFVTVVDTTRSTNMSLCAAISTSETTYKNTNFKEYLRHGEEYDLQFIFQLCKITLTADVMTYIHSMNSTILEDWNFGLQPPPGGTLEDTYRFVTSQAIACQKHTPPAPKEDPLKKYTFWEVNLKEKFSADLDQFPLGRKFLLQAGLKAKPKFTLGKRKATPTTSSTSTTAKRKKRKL

Measured: binding result

B1: monoclonal antibody 13B (antibody, V domains shown)
VH: DVQLQESGPGLVKPSQSLSLSCTVTGYSITSDSAWNWIRQFPGNKLEWMGYITFSGSTNYNPSLKSRLSITRDTSKNQFFLQLNSVTTEDTATYYCTGPFLDYWGQGTTLTVSS
VL: DVVMTQTPLSLPVSLGDQATISCRSSLSLVLSNRITYLQWYLQKPGQSPKLLIYKVSNRFSGVPDRFSGSGSGTDFTLKISRVEAEDLGVYFCSQSSHFPWTFGGGTKLEIKR
notes: Used as mouse ascites or as antibody purified from ascites; also called Mouse-Mouse hybridoma 13B (FERM BP-11304)
binds: all assays above

B2: monoclonal antibody 24B (antibody, V domains shown)
VH: EVQLQQSGTVLARPGASVKMSCKASVYSFPSNWMHWVKQRPGQGLEWIGAIYPGTGATRYNQKFKDKAKLTAVTSADTAYMELSSLTDEDSAVYYCTGYSLYWGQGTILTVSS
VL: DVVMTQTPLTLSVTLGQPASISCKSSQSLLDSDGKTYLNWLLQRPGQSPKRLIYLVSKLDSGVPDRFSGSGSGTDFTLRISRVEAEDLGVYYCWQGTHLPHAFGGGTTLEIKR
notes: Used as mouse ascites or as antibody purified from ascites; also called Mouse-Mouse hybridoma 24B (FERM BP-11305)
binds: all assays above
